According to the DeepSol protein solubility set:

Experiment: soluble on expression in E. coli; label from the status in PepcDB or PDB records

Soluble on expression in E. coli, not soluble:
MGSDKIHHHHHHMKNIIGILGVFILAISCSGGKKESADAGLELTEDSVVYLLADNVTLGIKALFPFIDKDGHEYLTFQNQLEPEICVYDLQSGEFVKSIFFDREGANGVGMFGGYHIIDFDEIYLPSLQQSKVFVMEESGKKKREIITEKTDDGIPLLPFGAITFAYRPIYFNNGKMYIPQTVNMRLGNKVMEKSPVYVVVDTVKNVLSPFSIKFPPIMSSDDVTKPSLGNELSYSCCLNDKDQFVFSFFFDEDIYVVSLQDGEMKKIKVKSRYIDKPAIKENPPQDFDGAMKASSEIPCYGNLIYDKYRKVYYRFVYLKADLDGEKNYLNIWQYGRKSFSIMILNEDFDVIGETRFPDFTYISTLHYIGKDGLYLSDSHYKNPSFDENKLRFRRFKLVHYNKK
MGSDKIHHHHHHMKNLLITVFFLSLTLQLSAETGGSNAVIVEKTTASPAEKTPVYWQKMADGMSQALIKHFWGANFKGYENRFYFNYGSDLSNMTTNHYWPQAHAMDVMVDAYMRTGSKQYLNIYPLWWEGAPKFNFAGREEDPWWNVFVDDMEWIALAQIRMFESTKNTKYLKKARQTYDDWVWSTWGPEDEAPWFGGITWKTDVAKSKNACSNGPAALIAARLYNFYDAMGKKAGKPKQAYLNEAIKIYTWEKNNLFDRQTGAVYDSMNGEGKITKWVFSYNSGTFLGAAHELYKITGDKQYLADAVKAANFVIDHLSTNEGVLSDAEGGDGGLFHGIFFRYFVKLINDPALDSANYNKFRDYITHCATVMAEQGVNQKTMLYSGRWRKAPADDESVGLTSHLTGCMLMEAMCVLKHR
MGSDKIHHHHHHMKNLYAKVIVGGSPISKSNFKLSNINGRAILPYNSGQYHDRYAIYEETIAYEARSQNPNTVISESIIAVLKVFYKSKKRHPDTNNITKSIFDGIEKSGIIVNDAQITRIIIEEYYDMINPRFELELFAESKFKMKYSILKKEEEDEPILYDPPSNKKRLITKTQKPKKSAQNGTITCSICGKKVTNDNIIWANKGTTALCKNCLKKSF
MGSDKIHHHHHHMKPENLVKAVKILDNHIPKELDDPNSIAQAAEKLELKNFSQSELVNGFNLFFAQRFEDRLQIFNRITPPVIGDLMALVTEKLGLAKQEIFDPEIVFPDLIFQFASHFGQSIYGRAADQIIDASLKKLANIYRFDFTDSDHEKIVVSRILGIDFAAEMNHFFKASNLKVGESAILLVNNSDLQSNSFAEILKKNKNMALLAIIELPTKLFKHSEMRSSLLILRRKVDNEKVTAQVLLAQIPELSNKEDFSKFVSQLETWKKENL
MGSDKIHHHHHHMKPGSHLFSPISFQESTPLYRQLYERVRRAISVGLLFPGDRLPSARMLAKELGVARGTIEQAYSLLIAEGYLQAHGQAGTRVNPDLPSASLPVAEAPVSPSAPDAEQQILWRPSQLLPFQMGVPAFDAFPRKLWARLGARYLRSMQLPDLDYPAPYGLPALRNAIASYLQVSRGIDCTANQVFITSGWRANLQLATLALLKSGQRVWVEDPGYPPTRQLLSQSGLCPIAVSVDREGINVERGIAQANDASMAVVTPAHQSPLSMSLSLPRRQALLQWATAQNAWIMEDDYDGEYRYISRPLPALASLDRHGRVLYAGTFSKVLFPGIRLAYLVVPQSQVAAFEHINRIFFASASPTMTQSIVASFITEGHFARHIQRTRRLYAERRTATITVLQGILGNRIRIDSQPGGMHLVLRLPDKFSDRQLADRLLAQGIAVQPLSRWAVSGSGDNALLVSFTNCTTVMESERLAALILAECEQHGNSLA
MGSDKIHHHHHHMKPPIQLPLGVRLRDDATFINYYPGANAAALGYVERLCEADAGWTESLIYLWGKQGVGRSHLLQAATHRFQQRGEPAVYLPLAQLLDRGVELLDYLAQYELVCIDDLHVIAGKADWEEAMFHLFNRLRDSGRRLLLAASASPRELPIKLPDLKSRLTLALVFQMRGLSDEDKLRALQLRASRRGLHLTDEVGHFILTRGARSMSALFDLLERLDQASLQAQRKLTIPFLKETLGW
MGSDKIHHHHHHMKRINRFAVQIDVEGRTELAHLHDPGRLLEIVYPGNEVLVRRTDGPKLKWRIEFGKINGRYVLIDSGLHSDIARRFLPEGAVPEVRVGRKRIDFRYGDDYIEVKGCTLMANGIAMFPDAPTKRGLEHLKTLETLASSGYRSHVMMIITRDDVRCFYPNFETDPKFAEAFLRLVPAYVKAHFLTFGFDGLYLRYAGSIGLCADVGHGTNGRL
MGSDKIHHHHHHMKSVSVRSCKTYNYEEVKLSIEKNLEDIGGIDKFVKKGSKVLIKPNLLMKKKPEEATTTHPMVVKVVCEKLLELNCDITIADSPGGPYNQSSLKSIYKASGIEEVANELGIKLNYDVSDVKIHSEKAHVLKYMDIIKPIVDSDYIINLCKLKTHIMATFTGGTKNLYGCIAGLKKAEIHYRFPTEELFCENVLLDICDYIKPTLTIMDGIVGMEGDGPSAGTTREIGVLLASQNPYAIDVVACKIISLLPNRVATIRGAIKRGYIQEDFSDIEILGEDIKDLIIKNYKIPNVSKDLRLFSVKLPKFLNEPISKLITPKPVVRFQDCIKCGKCKEACPASTIEIGTKGAIIDLSKCIRCYCCHELCPKKAIDVKRNFVFKYVK
MGSDKIHHHHHHMKTAALFVSKEFEEEAIALVEGANYKVTSIYKLPKSPNVKFYIQYDKLQQIKNDEEISTLIIFEQLKPRHFINIRRELKGKEVLDKILLLLEIFALHAGSKEAKMQIELARLKYELPIIKETYTKSKIGEQQGPLGAGTYGVESTIKFYKRRINKLMKELESIKIFKEKSIESNKRNNIPSIGIVGYTNSGKTSLFNSLTGLTQKVDTKLFTTMSPKRYAIPINNRKIMLVDTVGFIRGIPPQIVDAFFVTLSEAKYSDALILVIDSTFSENLLIETLQSSFEILREIGVSGKPILVTLNKIDKINGDLYKKLDLVEKLSKELYSPIFDVIPISALKRTNLELLRDKIYQLATQLS
MGSDKIHHHHHHMKTELVQVETEDSIVLHGAFYEAEQGKPAIIIMHGAAMNFYTGLGRFLPEILSEHGFSCLSANNRGHDFGTAPDHDRKPVIGLMRDIFKDCVKDVQALLHFLRSRGYPRVILLGHSQAIPKLLYAQNQLQFPEVQGMILVSPPPSVSKMMRYLTTDNYYERGLFKANELGEMGMYDQLIVLRGRGTMPWIFTVSTFLDFYGPNTPADTEELVKEIYCPMLLIRGSMDFPPVSMELMHNMKQNAAVPESVTIREINEASHFYSGQEKQLGNTILEWLDSY
MGSDKIHHHHHHMKTGRNDPCPCGSAKKYKNCCMDAISKQNSALLDDISQVTAMNPNLTHDELDLVLQQKAFAQNNRPIADFCGLSPAQMANWLYAPFNELNCVAISPPDDLSSSPVMRYLEVILDEAMAQNGSFKATSKGNLPTKLVKQASGLLPEFAVAQFSTNISISEYAGSNEDKFNALHYTRILAELSGIIYRKSGSYHVKKAAQKQYQSQGLTAFFLPMLEAAITKYNWGYLDSWEHDAVLSTFWLFMLWRLQSHASVDELIDEVATAFPDLLHQFPADKYRTPQAQLGMGIDSRFLKRFLQFWGFITLDPKRLFAEPREPRKVQIQPLLTQTFKFTI
MGSDKIHHHHHHMKTLKGPGIFLAQYIGDQAPFNTLENLAQWAAGLGFKALQIPCNHPHIFNLATAADSQTYCDEVKGLLAQHGLTISELSTHLEGQLVAVHPAYDDAFDDFAPPAYRRNPQARQQWAISAIKQAAKASSRLGLNAHATFSGALAWPYFYPWPPRKEALIQEAFKELGRLWTPILDCFDEHGVDVCYELHPGEDLHDGVTFERFLDVVNHHPRANILYDPSHMHLQQMDYLGFIDRYHARIKAFHVKDAEFTPSSKSGVYGGYQSWAERAGRFRSPGDGQIDFGAIFSKLAQYDYDGWAVLEWECCLKDSNCGAKEGAAFIDRHIIPVAQRAFDDFAATSDDRPLVRKMLGLKEEDAE
MGSDKIHHHHHHMKTNTSNQTTPQLATIKLFAMGCHIQISLYTTRLSAQYSQMTIDQQVAFLTSDVQQRLAYWEHIFSRFDDTSELMRLNNRGDQWSEVSSELFEVLQHAIHFVLKTQGLVTPTLLQPLWAAGYKHSFETLPKISMPSLPFTGLSAPSNVQDTTSANHANQQIGRIQLRQLTDGQHQVYLPTGMALDLNGYVKGWCAMQLAEHISRVHDWHIPCLVDMGGDIAIGIPRDPIDKPVTWGVAVAKPYFANSKHVQNDEDVAILKLSSGAVATSGQDYRRWWHDGRWQHHLIHPHDSRPVTSDVLTATVLATDTMTAEVYAKYCLLLGVKVAMAWLNKYHIAALLIDTDNKVMATSAIRPHLLQPNVVKSNVMSI
